B1: Transcriptional regulator ERG, residues 117 to 197; numbered along this chain, P11308 (parent)
chain: NMTTNERRVIVPADPTLWSTDHVRQWLEWAVKEYGLPDVNILLFQNIDGKELCKMTKDDFQRLTPSYNADILLSHLHYLRE
B2: Ras GTPase-activating protein 1, residues 281 to 341; numbered along this chain, P20936 (parent)
chain: RRRVRAILPYTKVPDTDEISFLKGDMFIVHNELEDGWMWVTNLRTDEQGLIVEDLVEEVGR

Variants of: B1
Test: abundance fitness (aPCA) (normalised: wild type 0, dead -1); higher = more abundant; growth selection in yeast, the domain comes from the species named
Conditions: Homo sapiens

Abundance fitness, by site and new letter:
E81: W -0.32 | N 0.557 | Q 0.016 | D 0.102 | P -0.107 | Y -0.058 | G 0.138 | V -0.155 | L 0.076 | A -0.03 | M -0.301 | F -0.339 | C -0.05 | I -0.152 | H 0.108
L76: N -0.794 | G -0.802 | H -0.237 | P -0.923 | R -0.944 | S -0.576 | E -0.742 | W -0.411 | Q -0.928 | C -0.151 | K -0.519 | I 0.05 | M -0.262 | A -0.342 | Y -0.663 | V -0.105
H77: T -0.119 | G 0.194 | I 0.142 | M -0.24 | W -0.166 | Q -0.098 | D -0.128 | S -0.026 | A 0.034 | K 0.044 | N 0.112 | E 0.099 | L -0.087 | F -0.226 | V -0.072 | Y -0.295 | R 0.052
L73: A 0.023 | S -0.063 | T -0.016 | M 0.015 | D -0.156 | P -0.634 | H -0.061 | N -0.201 | C 0.075 | Q -0.144 | G -0.183 | R -0.039 | K -0.292 | W -0.028 | Y -0.054 | E -0.293 | V -0.028 | I -0.034
L72: E -0.719 | I -0.199 | N -1.02 | P -0.649 | S -0.801 | D -0.97 | R -0.714 | C -0.726 | H -0.909 | A -0.821 | V -0.471 | T -0.543 | W -0.653 | G -0.953 | Q -0.697 | K -0.952 | Y -0.669
S74: Y -0.018 | H 0.246 | T 0.078 | M -0.124 | F -0.379 | D -0.064 | N 0.032 | I -0.342 | L -0.217 | C -0.115 | Q -0.073 | W -0.603 | P -0.352 | G 0.026 | V -0.138 | R 0.006
I71: M 0.065 | E -0.151 | R 0.113 | W -0.282 | F -0.272 | S -0.148 | G -0.174 | T 0.05 | A 0.036 | Q 0.03 | D -0.359 | H 0.001 | P 0.06 | Y -0.266 | K 0.074 | V 0.059 | N -0.624
L79: N -0.259 | E -0.054 | I 0.061 | H -0.076 | M 0.179 | Y -0.454 | R -0.002 | F -0.215 | V 0.046 | C 0.114 | S -0.141 | P -0.19 | T 0.021 | D -0.106 | Q -0.007 | G -0.195 | K -0.014
A69: G -0.124 | W -0.203 | V -0.039 | P -0.124 | R -0.748 | L -0.658 | S -0.352 | Q -0.564 | K -0.445 | M -0.186 | T -0.219
Y78: A 0.181 | G 0.203 | K 0.103 | E 0.247 | H -0.119 | W -0.22 | Q 0.2 | I 0.034 | V 0.071 | N 0.305 | M 0.163 | C 0.029 | F -0.087 | T 0.173 | P -0.033 | S 0.148 | D 0.228 | L 0.12
D70: P -0.316 | L -0.24 | T -0.157 | V -0.176 | S -0.1 | K -0.097 | A -0.169 | R -0.036 | Y -0.293 | N -0.143 | W -0.42 | M -0.237 | Q -0.042 | G -0.05 | F -0.448 | E 0.07 | H -0.011
Y67: P 0.036 | L -0.03 | T 0.113 | A 0.016 | K -0.097 | V 0.019 | Q 0.079 | E 0.037 | S 0.075 | H 0.033 | F -0.242 | D 0.199 | N 0.138 | C 0.127 | G 0.078 | M -0.14 | I -0.16
S66: W -0.28
R80: G -0.152 | Q 0.071 | N 0.193 | V -0.046 | M 0.038 | F 0.003 | K -0.004 | Y -0.466 | E -0.166 | C 0.178 | H 0.068 | P -0.01 | A 0.021 | S -0.109
H75: V -0.62 | A -0.01 | W -1 | I -0.215 | M -1.02 | G -0.156 | N 0.099 | Y -0.113 | T -0.646 | L -0.316 | P -0.561 | E -0.163 | F -0.511 | D 0.119 | R 0.121 | Q 0.038
N68: Q 0.085 | C -0.212 | P 0.017 | I -0.079 | A 0.013 | R -0.275 | D 0.021 | E 0.085 | V 0.008 | K -0.266 | M -0.155 | F -0.468 | S 0.011 | L -0.48

Variants of: B2
Test: as above
Conditions: Homo sapiens

Abundance fitness, by site and new letter:
V4: F -0.082 | W -0.597 | I -0.205 | K -0.626 | S -0.895 | M -0.074 | Q -0.848 | L -0.055 | T -0.605 | R -0.631 | N -0.865 | H -0.739 | C -0.465 | G -0.901 | P -0.903 | E -0.929 | A -0.462
R5: E -0.138 | H -0.398 | Q -0.01 | L -0.256 | A -0.354 | M -0.025 | Y -0.331 | I -0.055 | G -0.796 | D -0.86 | N -0.754 | F -0.398 | K 0.052 | T -0.21 | W -0.531 | S -0.272 | P -0.919 | V -0.007 | C -0.072
R3: L -0.09 | I -0.073 | T -0.136 | N -0.126 | W -0.378 | Y -0.045 | M -0.158 | G -0.383 | D -0.514 | P -0.51 | K -0.01 | A -0.292 | S -0.136 | V -0.1 | Q -0.066 | H -0.096 | C -0.212 | F 0.004
R2: C -0.347 | N -0.099 | V -0.232 | I -0.159 | Y -0.103 | P -0.189 | K 0.027 | M -0.053 | F -0.196 | S -0.164 | L -0.187 | T -0.128 | G -0.241 | D -0.179 | E 0.007 | W -0.371 | Q -0.172 | H -0.183
A6: C -0.829 | D -0.953 | F -0.919 | H -0.925 | E -0.819
R1: V -0.016 | W -0.315 | K 0.058 | P -0.283 | Y 0.018 | L -0.067 | F 0.06 | N 0.063 | D 0.122 | I 0.072 | A -0.129 | C -0.065 | T 0.029 | Q -0.503 | M 0.087 | G -0.098

From the Human Domainome abundance scans (Beltran et al. 2025)
